What was measured:
Test in all cases: cell-based or functional assay
[1] = target: T1, HUVEC IL-4 receptor (IL-4Rα/γ-like receptor component) (human, UniProt P24394 26-825)
[2] = target: T2, T cell IL-4 receptor (IL-4Rα/IL-2Rγ) (human, UniProt P24394 26-825; P31785 23-369)
T2 sequence (looked up) 1: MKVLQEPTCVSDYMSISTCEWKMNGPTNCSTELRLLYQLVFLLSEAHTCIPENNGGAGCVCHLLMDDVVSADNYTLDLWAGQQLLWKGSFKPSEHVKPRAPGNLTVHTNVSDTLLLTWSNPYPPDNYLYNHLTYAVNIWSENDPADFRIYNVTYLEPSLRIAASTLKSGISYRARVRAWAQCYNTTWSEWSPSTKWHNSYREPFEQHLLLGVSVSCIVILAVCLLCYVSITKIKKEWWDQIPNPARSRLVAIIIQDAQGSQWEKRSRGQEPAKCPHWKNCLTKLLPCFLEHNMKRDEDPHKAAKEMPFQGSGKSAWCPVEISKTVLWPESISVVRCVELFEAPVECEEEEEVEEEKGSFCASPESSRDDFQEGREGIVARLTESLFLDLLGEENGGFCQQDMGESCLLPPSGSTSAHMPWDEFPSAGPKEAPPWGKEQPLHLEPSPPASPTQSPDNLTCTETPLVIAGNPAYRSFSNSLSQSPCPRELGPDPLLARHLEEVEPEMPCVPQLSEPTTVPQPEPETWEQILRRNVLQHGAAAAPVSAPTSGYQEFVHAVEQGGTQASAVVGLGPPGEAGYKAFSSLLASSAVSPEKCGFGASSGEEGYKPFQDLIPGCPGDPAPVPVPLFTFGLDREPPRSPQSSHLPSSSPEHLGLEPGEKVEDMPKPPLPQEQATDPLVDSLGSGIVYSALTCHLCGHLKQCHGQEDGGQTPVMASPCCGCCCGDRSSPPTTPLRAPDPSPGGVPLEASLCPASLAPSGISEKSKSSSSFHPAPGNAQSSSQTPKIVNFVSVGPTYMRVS
T2 sequence (looked up) 2: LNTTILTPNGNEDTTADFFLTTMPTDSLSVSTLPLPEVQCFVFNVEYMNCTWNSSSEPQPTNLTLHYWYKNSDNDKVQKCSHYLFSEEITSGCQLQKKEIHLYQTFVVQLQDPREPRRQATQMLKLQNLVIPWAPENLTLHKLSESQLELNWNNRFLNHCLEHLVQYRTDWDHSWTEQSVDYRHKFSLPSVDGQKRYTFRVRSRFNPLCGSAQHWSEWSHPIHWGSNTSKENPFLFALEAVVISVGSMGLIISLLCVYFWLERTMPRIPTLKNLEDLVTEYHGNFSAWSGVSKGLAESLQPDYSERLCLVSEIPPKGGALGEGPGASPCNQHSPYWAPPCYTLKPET

[3] = target: T1, HUVEC IL-4 receptor (IL-4Rα/γ-like …); remark: listed apart in the source

Binder | IC50, HUVEC antagonist assay (IL-4-induced IL-6 secretion) [1] | 1° T cell proliferation, EC50, pM [2] | HUVEC, IL-6 secretion, EC50, pM [3] | antagonist potency relative to R121E, HUVEC antagonist assay [1]
IL-4 mutein R121E (ligand) HKCDITLQEIIKTLNSLTEQKTLCTELTVTDIFAASKNTTEKETFCRAATVLRQFYSHHEKDTRCLGATAQQFHRHKQLIRFLKRLDRNLWGLAGLNSCPVKEANQSTLENFLERLKTIMEEKYSKCSS | ~60 nM | 65 pM | – | –
IL-4 mutein R121T/E122F/Y124Q (ligand) HKCDITLQEIIKTLNSLTEQKTLCTELTVTDIFAASKNTTEKETFCRAATVLRQFYSHHEKDTRCLGATAQQFHRHKQLIRFLKRLDRNLWGLAGLNSCPVKEANQSTLENFLERLKTIMTFKQSKCSS | – | 15 pM | – | –
IL-4 mutein R121I (ligand) HKCDITLQEIIKTLNSLTEQKTLCTELTVTDIFAASKNTTEKETFCRAATVLRQFYSHHEKDTRCLGATAQQFHRHKQLIRFLKRLDRNLWGLAGLNSCPVKEANQSTLENFLERLKTIMIEKYSKCSS | – | 100 pM | 40 pM | –
IL-4 mutein Y124R (ligand) HKCDITLQEIIKTLNSLTEQKTLCTELTVTDIFAASKNTTEKETFCRAATVLRQFYSHHEKDTRCLGATAQQFHRHKQLIRFLKRLDRNLWGLAGLNSCPVKEANQSTLENFLERLKTIMREKRSKCSS | – | 750 pM | 250 pM | –
IL-4 mutein R121A (ligand) HKCDITLQEIIKTLNSLTEQKTLCTELTVTDIFAASKNTTEKETFCRAATVLRQFYSHHEKDTRCLGATAQQFHRHKQLIRFLKRLDRNLWGLAGLNSCPVKEANQSTLENFLERLKTIMAEKYSKCSS | – | 150 pM | 20 pM | –
IL-4 mutein R121P (ligand) HKCDITLQEIIKTLNSLTEQKTLCTELTVTDIFAASKNTTEKETFCRAATVLRQFYSHHEKDTRCLGATAQQFHRHKQLIRFLKRLDRNLWGLAGLNSCPVKEANQSTLENFLERLKTIMPEKYSKCSS | – | 100 pM | 650 pM | –
IL-4 mutein Y124A (ligand) HKCDITLQEIIKTLNSLTEQKTLCTELTVTDIFAASKNTTEKETFCRAATVLRQFYSHHEKDTRCLGATAQQFHRHKQLIRFLKRLDRNLWGLAGLNSCPVKEANQSTLENFLERLKTIMREKASKCSS | – | 150 pM | 65 pM | –
IL-4 mutein R121T (ligand) HKCDITLQEIIKTLNSLTEQKTLCTELTVTDIFAASKNTTEKETFCRAATVLRQFYSHHEKDTRCLGATAQQFHRHKQLIRFLKRLDRNLWGLAGLNSCPVKEANQSTLENFLERLKTIMTEKYSKCSS | – | 150 pM | 20 pM | –
IL-4 mutein R121D (ligand) HKCDITLQEIIKTLNSLTEQKTLCTELTVTDIFAASKNTTEKETFCRAATVLRQFYSHHEKDTRCLGATAQQFHRHKQLIRFLKRLDRNLWGLAGLNSCPVKEANQSTLENFLERLKTIMDEKYSKCSS | – | 100 pM | – | –
IL-4 mutein Y124S (ligand) HKCDITLQEIIKTLNSLTEQKTLCTELTVTDIFAASKNTTEKETFCRAATVLRQFYSHHEKDTRCLGATAQQFHRHKQLIRFLKRLDRNLWGLAGLNSCPVKEANQSTLENFLERLKTIMREKSSKCSS | – | 425 pM | 350 pM | –
IL-4 mutein R121F (ligand) HKCDITLQEIIKTLNSLTEQKTLCTELTVTDIFAASKNTTEKETFCRAATVLRQFYSHHEKDTRCLGATAQQFHRHKQLIRFLKRLDRNLWGLAGLNSCPVKEANQSTLENFLERLKTIMFEKYSKCSS | – | 150 pM | 20 pM | –
IL-4 mutein Y124T (ligand) HKCDITLQEIIKTLNSLTEQKTLCTELTVTDIFAASKNTTEKETFCRAATVLRQFYSHHEKDTRCLGATAQQFHRHKQLIRFLKRLDRNLWGLAGLNSCPVKEANQSTLENFLERLKTIMREKTSKCSS | – | 300 pM | 350 pM | –
IL-4 mutein Y124Q (ligand) HKCDITLQEIIKTLNSLTEQKTLCTELTVTDIFAASKNTTEKETFCRAATVLRQFYSHHEKDTRCLGATAQQFHRHKQLIRFLKRLDRNLWGLAGLNSCPVKEANQSTLENFLERLKTIMREKQSKCSS | – | 250 pM | 200 pM | –
IL-4 mutein R121H (ligand) HKCDITLQEIIKTLNSLTEQKTLCTELTVTDIFAASKNTTEKETFCRAATVLRQFYSHHEKDTRCLGATAQQFHRHKQLIRFLKRLDRNLWGLAGLNSCPVKEANQSTLENFLERLKTIMHEKYSKCSS | – | 150 pM | 40 pM | –
IL-4 mutein T13D/R121E (ligand) HKCDITLQEIIKDLNSLTEQKTLCTELTVTDIFAASKNTTEKETFCRAATVLRQFYSHHEKDTRCLGATAQQFHRHKQLIRFLKRLDRNLWGLAGLNSCPVKEANQSTLENFLERLKTIMEEKYSKCSS | ~2.2 nM | 100 pM | – | ~27 fold
IL-4 mutein R121N (ligand) HKCDITLQEIIKTLNSLTEQKTLCTELTVTDIFAASKNTTEKETFCRAATVLRQFYSHHEKDTRCLGATAQQFHRHKQLIRFLKRLDRNLWGLAGLNSCPVKEANQSTLENFLERLKTIMNEKYSKCSS | – | 150 pM | 35 pM | –
IL-4 mutein R121K (ligand) HKCDITLQEIIKTLNSLTEQKTLCTELTVTDIFAASKNTTEKETFCRAATVLRQFYSHHEKDTRCLGATAQQFHRHKQLIRFLKRLDRNLWGLAGLNSCPVKEANQSTLENFLERLKTIMKEKYSKCSS | – | 150 pM | 100 pM | –
IL-4 mutein Y124A/S125A (ligand) HKCDITLQEIIKTLNSLTEQKTLCTELTVTDIFAASKNTTEKETFCRAATVLRQFYSHHEKDTRCLGATAQQFHRHKQLIRFLKRLDRNLWGLAGLNSCPVKEANQSTLENFLERLKTIMREKAAKCSS | – | 600 pM | 200 pM | –
IL-4 mutein R121W (ligand) HKCDITLQEIIKTLNSLTEQKTLCTELTVTDIFAASKNTTEKETFCRAATVLRQFYSHHEKDTRCLGATAQQFHRHKQLIRFLKRLDRNLWGLAGLNSCPVKEANQSTLENFLERLKTIMWEKYSKCSS | – | 150 pM | 80 pM | –

From US20030004314A1 (published 2003)
